Target: recombinant thioredoxin (rTRX) [thioredoxin: P0AA25]
Test: SPR; BIAcore T200; anti-His-tag antibody amine-coupled to a CM5 chip captures the His-tagged recombinant protein (0.1 mg/mL, about 200 RU); ligands (0.1 mg/mL) injected at 10 μL/min for 180 s; HBS-EP pH 7.5 (10 mM HEPES, 150 mM NaCl, 3 mM EDTA, 0.005% P20); relative reaction value, RUs >10 considered positive

Sequence of recombinant thioredoxin (rTRX) [thioredoxin: P0AA25] (P0AA25 whole entry): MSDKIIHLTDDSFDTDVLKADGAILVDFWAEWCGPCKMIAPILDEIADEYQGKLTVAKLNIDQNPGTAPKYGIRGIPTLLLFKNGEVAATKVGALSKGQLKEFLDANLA

laminin protein
response units (relative reaction value): < 10 RUs
